Experimental data as given in patent US20220324971A1 (AKESO BIOPHARMA, published 2022).
Each block holds one binder with its values, some of them ahead of it.

Columns and labels:
[1] = target: T1, CD47 on the cell membrane surface of human cells (normal human RBCs, Raji, LOVO) (human, UniProt Q08722 19-323); assay: flow cytometry on Raji cells
T1 construct: whole, on cells; also called CD47 on the cell membrane surface of normal human RBCs; CD47 on the cell membrane surface of Raji cells

[2] = target: T2, human CD47 IgV TEV-His (human, UniProt Q08722 19-141); assay: competitive ELISA vs SIRPα ECD-hFc-Biotin 0.1 ug/mL on coated CD47 IgV TEV-His (blocking EC50)
T2 construct: range 19-141; Recombinant fusion protein synthesized by Akeso; residue numbers count on NP_942088.1; not shown: his tag

[3] = target: T1, CD47 on the cell membrane surface of …; assay: flow cytometry competition vs SIRPα-ECD-mFc 20 nM on Raji cells
Method: Raji cells in the log phase were routinely collected, centrifuged and washed. The cell pellets were resuspended in 1% PBSA and counted, and the viability was determined. The cell concentration was adjusted with 1% PBSA into a suitable range, and the cells were transferred in groups into 1.5 mL tubes at 500 μL per tube, for a total of 0.3 million cells. The cells were centrifuged at 5600 rpm for 5 min, and the supernatant was discarded. The antibody serially diluted was added (final concentrations in descending order: 1, 0.3, 0.1, 0.01, 0.001, 0.0001 nM), and a blank control (100 μL of 1% PBSA+ cells) and an isotype control (human hIgG) were set up, followed by incubation on ice for 30 min. […] 1% PBSA was added, followed by centrifugation at 5600 rpm for 5 min, and the supernatant was discarded. 100 μL of FITC goat anti-mouse IgG (1:500 dilution) was added to each tube, followed by incubation on ice for 40 min in the dark. 500 μL of 1% PBSA was added, followed by centrifugation at 5600 rpm for 5 min, and the supernatant was discarded. 200 μL of 1% PBSA was added to resuspend the cell pellets. Fluorescence signals were detected with FITC channel on a flow cytometer.

[4] = target: T1, CD47 on the cell membrane surface of …; assay: flow cytometry on human RBCs
Method: Fresh blood was mixed well with blood buffer (blood dilution ratio of 1:3 after concentration). […] The tubes were each centrifuged at 1550 rpm for 30 min after balancing. The PBMCs in the middle buffy coat layer were pipetted. The blood buffer was added in a volume ratio of cells to blood buffer of 1:4. The resulting mixture was well mixed and centrifuged at 950 rpm for 15 min, and the supernatant was discarded. 20 mL of the blood buffer was added to resuspend PBMCs. The resulting suspension was centrifuged, and the supernatant was discarded. Centrifugation was performed, followed by two washings. […] Centrifugation was performed and the supernatant was discarded. […] 500 μL of 1% PBSA was added to each tube, followed by centrifugation at 5600 rpm for 5 min. The supernatant was discarded. 100 μL of the antibody with a corresponding concentration was added (final concentrations: 300, 100, 10, 1, 0.1, 0.01, 0.001 nM) to each tube, and a Blank (PBSA+ cells) and an isotype control were designed, followed by incubation on ice for 1 h. […] 200 μL of 1% washing buffer was added to each tube to resuspend the cells, and fluorescence signals were detected with FITC channel on a flow cytometer. The results were analyzed using Flowing software, and curve fittings were performed separately using MFI and sample concentration on GraphPad prism 5 to calculate EC50.

[5] = target: T2, human CD47 IgV TEV-His; assay: Biacore SPR, CD47 IgV-TEV-His amine-coupled to chip, antibody 0.78-12.5 nM, 1:1 model
Method: The buffer solution was PBST. […] The antibody and human CD47 were subjected to dissociation for 300 s. The chip was regenerated with 3 M MgCl₂ for 30 s at a flow rate of 30 μL/min. The data were analyzed by 1:1 model fitting to obtain affinity constants. Data were acquired using Biacore Control 2.0 software and analyzed using Biacore T200 Evaluation 2.0 software.

[6] = target: T1, CD47 on the cell membrane surface of …; assay: flow cytometry on LOVO cells
Method: The cell pellets were resuspended in 500 μL of 1% PBSA and counted, and the viability was determined. The cells were transferred to 1.5 mL tubes according to 3.0×10⁵ cells/500 μL/tube, and centrifuged at 5600 rpm for 5 min, and the supernatant was discarded. […] Then 500 μL of 1% PBSA was added, followed by centrifugation at 5600 rpm for 5 min, and the supernatant was discarded. 100 μL of FITC goat anti-human IgG (1:500) was added to each tube, and the mixtures were well mixed and incubated on ice for 30 min in the dark. 500 μL of 1% PBSA was added, followed by centrifugation at 5600 rpm for 5 min, and the supernatant was discarded. 200 μL of 1% PBSA was added to each tube to resuspend the cells, and the suspensions were transferred to flow cytometry tubes and detected by a flow cytometer BD FACSCalibur. The results were analyzed using Flowing software, and curve fittings were performed separately using MFI and sample concentration on GraphPad prism 5 to calculate EC50.

[7] = target: T1, CD47 on the cell membrane surface of …; assay: flow cytometry competition vs SIRPα-ECD-mFc on LOVO cells
[8] = target: T1, CD47 on the cell membrane surface of …; assay: flow cytometry competition vs SIRPα-mFc 20 nM on LOVO cells
Method: The cell pellets were resuspended in 1% PBSA and counted, and the viability was determined. The cell concentration was adjusted with 1% PBSA into a suitable range, and the cells were transferred in groups into 1.5 mL tubes at 500 μL per tube, for a total of 0.3 million cells. The cells were centrifuged at 5600 rpm for 5 min, and the supernatant was discarded. The antibody serially diluted was added (final concentrations in descending order: 300, 100, 10, 1, 0.3, 0.1, 0.01, 0.001, 0.0001 nM), and a blank control (100 μL of 1% PBSA+ cells) and an isotype control (human hIgG) were set up, followed by incubation on ice for 30 min. […] 1% PBSA was added, followed by centrifugation at 5600 rpm for 5 min, and the supernatant was discarded. 100 μL of FITC goat anti-mouse IgG (1:500 dilution) was added to each tube, followed by incubation on ice for 40 min in the dark. 1% PBSA was added, followed by centrifugation at 5600 rpm for 5 min, and the supernatant was discarded. 200 μL of 1% PBSA was added to resuspend the cell pellets, and the suspensions were transferred to flow cytometry tubes. Fluorescence signals were detected with FITC channel on a flow cytometer. Curve fittings were performed separately using MFI and sample concentration to calculate EC50.

[9] = target: T2, human CD47 IgV TEV-His; assay: indirect ELISA, coated CD47 IgV TEV-His 2 ug/mL
Method: Experimental procedures: A microplate was coated with 2 μg/mL human CD47 IgV TEV-His and incubated at 4° C. for 12 h. The antigen-coated microplate was rinsed 3 times with PBS, and then blocked with 1% BSA in PBS for 2 h. The microplate was rinsed 3 times with PBS. The antibody serially diluted with PBST solution was added into the wells of the microplate, the dilution gradients for the antibody detailed in Table 2. The microplate containing the test antibody was incubated at 37° C. for 30 min, and then washed 3 times with PBST. […] The microplate was washed 3 times with PBST. […] Then the microplate was put into a microplate reader immediately, and the OD value of each well in the microplate was read at 450 nm. The data were analyzed by SoftMax Pro 6.2.1.

[10] = target: T1, CD47 on the cell membrane surface of …; assay: flow cytometry on Raji cells; remark: listed apart in the source
Method: Raji cells in the log phase were collected, centrifuged, and washed. The cell pellets were resuspended in 1% PBSA and counted, and the viability was determined. The cells were transferred to 1.5 mL tubes according to 3.0×10⁵ cells/500 μL/tube, and centrifuged at 5600 rpm for 5 min, and the supernatant was discarded. 100 μL of the corresponding antibody serially diluted was added to each tube according to the experimental design, and a blank group (PBSA+ cells) and an isotype control (hIgG) group were designed, followed by incubation on ice for 1 h. Then 1% PBSA was added, followed by centrifugation at 5600 rpm for 5 min, and the supernatant was discarded. 100 μL of FITC goat anti-human IgG (1:500) was added to each tube, and the mixtures were well mixed and incubated on ice for 30 min in the dark. 500 μL of 1% PBSA was added, followed by centrifugation at 5600 rpm for 5 min, and the supernatant was discarded. 1% PBSA was added to each tube to resuspend the cells, and fluorescence signals were detected with FITC channel on a flow cytometer. Curve fittings were performed separately using MFI and sample concentration to calculate EC50.

[11] = target: T2, human CD47 IgV TEV-His; assay: competitive ELISA vs SIRPα ECD-hFc-Biotin 0.1 ug/mL on coated CD47 IgV TEV-His (blocking EC50); remark: listed apart in the source
Method: Experimental procedures: A microplate was coated with 2 μg/mL human CD47 IgV TEV-His at 50 μL per well and incubated at 4° C. for 16 h. The microplate was washed once and tapped dry, blocked with 1% BSA (in PBS) at 300 μL per well, incubated at 37° C. for 2 h, and washed three times and tapped dry. […] Two duplicate wells were set for the above concentrations, with a final volume of 50 μL per well, and the plate was incubated for 10 min. […] The microplate was washed three times and tapped dry. 50 μL of SA-HRP (KPL, 14-30-00) working solution was added to each well, and the microplate was incubated at 37° C. for 30 min. The microplate was washed four times and tapped dry. 50 μL of TMB chromogenic solution was added to each well for color developing for 5 min at room temperature in the dark, and then the color development was terminated by adding 50 μL of stop solution to each well. Then the microplate was put into a microplate reader immediately, and the OD value of each well in the microplate was read at 450 nm. The data were analyzed and processed by SoftMax Pro 6.2.1.

[12] = target: T2, human CD47 IgV TEV-His; assay: Fortebio BLI, antibody amine-coupled to AR2G sensor, antigen 3.125-100 nM
From the text: The sensor was equilibrated in PBST for 300 s. […] The antigen and the antibody were subjected to dissociation in PBST for 600 s.

EC50 [1]: 0.32 nM | EC50 [2]: 0.194 nM | EC50 [3]: 0.017 nM | EC50 [4]: 0.6 nM | Kd [5]: 0.152 nM | EC50 [6]: 0.02 nM | EC50 [7]: 0.1 nM
B1: 6F7 H1L1(hG4) (antibody, human IgG4, kappa)
heavy: not shown
light: NIVMTQSPATMSMSPGERVTLSCRASEIVGTYVSWFQQKPGQAPRLLIYGASNRYTGVPARFSGSGSGTDFTLTISSVQPEDLADYHCGQSYNFPYTFGGGTKLEIKRTVAAPSVFIFPPSDEQLKSGTASVVCLLNNFYPREAKVQWKVDNALQSGNSQESVTEQDSKDSTYSLSSTLTLSKADYEKHKVYACEVTHQGLSSPVTKSFNRGEC
notes: Humanized 6F7

EC50 [8]: 0.16 nM | EC50 [9]: 0.037 nM | EC50 [10]: 0.013 nM | EC50 [11]: 0.274 nM
B2: 6F7 H1L1(G1M) (antibody, human IgG1, kappa, L234A L235A)
heavy: not shown
light: B1 light
notes: Humanized 6F7; also called 6F7 H1L1(hG1DM)

Kd [12]: 0.652 nM | koff [12]: 0.000256 s⁻¹ | kon [12]: 393000 M⁻¹ s⁻¹
B3: murine antibody 6F7 (antibody, V domains shown)
VH: QVQLQQPGAELVRPGASVKLSCKASGYTFTSYWMNWVKQRPGQGLEWIGMIDPSDSETHNNQMFKDKATLTVDKSSNTAYMHLSSLTSEDSAVYHCARLYRWYFDVWGAGTTVTVSS
VL: NIVMTQSPKSMSMSLGERVTLSCKASEIVGTYVSWFQQKPHQSPKLLIYGASNRYTGVPDRFTGSGSATDFTLTISNVQAEDLADYHCGQSYNFPYTFGGGTKLEIK
notes: Murine hybridoma antibody purified on protein A; also called monoclonal antibody secreted by hybridoma cell line LT012 (CD47-6F7)
